From the MegaScale stability set (Tsuboyama et al. 2023)

B1: 5KPH (parent)
chain: EEKRQVKQVAKEKLLEQSPNSKVQVRRVQKQGNTIRVELELRTNGKKENYTVEVERQGNTWTVKRITRT

Variants of: B1
Test: folding stability dG (cDNA display proteolysis); higher = more stable
Settings: PBS, room temperature

Folding stability dG [kcal/mol] of substitutions, site by site:
N20: F 3.35; S 3.81; E 3.53; W 2.38; R 3.5; Y 3.32; G 4.21; Q 3.62; K 3.55; M 3.58; T 3.6; V 2.78; L 3.6; P 2.3; H 3.64; I 3.03
V28: E 1.75; M 4.12; P 1.34; N 1.55; K 1.74; C 3.4; A 3.15; G 1.87; F 3.91; T 3.24; I 3.99; W 3.85; Q 2.53; R 1.56; H 2.16; D 1.44; S 2.5; L 4.03
S21: H 2.6; V 3.17; Y 2.67; W 2.89; C 3.12; E 1.96; I 2.46; M 2.75; T 2.81; K 2.16; R 2.18; D 2.23; A 3.98; P 2.37; L 2.57; F 2.65; G 4.01; Q 2.31; N 2.38
R27: Y 3.72; V 3.12; A 3.61; N 3.56; K 3.62; M 3.43; P 1.38; H 3.71; D 3.1; T 3.37; C 3.45; S 3.79; G 3.64; E 2.76; Q 3.3; F 3.84; L 3.53; W 4.14; I 3.22
V25: G 1.64; E 1.74; N 1.72; Y 2.81; M 2.63; T 2.85; Q 1.67; H 2.19; W 2.7; P 2.2; L 2.91; A 2.95; C 3.09; D 1.17; K 1.3; R 1.71; S 1.84; F 3.77; I 3.76
V23: I 3.9; G 1.59; N 1.26; S 2.02; A 3.6; E 1.2; H 1.57; P 2.68; Q 1.79; W 2.67; Y 1.94; R 1.43; M 3.08; K 1.37; T 2.51; F 2.6; C 3.17; D 1.23; L 3.07
R26: K 4; W 3.49; E 2.58; G 3.32; S 3.35; Y 3.53; Q 3.49; A 3.09; C 3.65; I 4.25; V 4.16; N 3.51; P 1.51; F 3.7; D 2.16; L 4.62; H 3.56; M 4.11; T 3.92
K22: N 3.62; Y 4.05; M 3.85; I 4.01; C 3.65; W 4.06; Q 4.05; R 3.85; D 3.8; S 3.83; P 2.37; T 4.16; F 4.16; H 3.91; E 4.13; V 4.01; L 3.99; G 3.2; A 3.71
Q24: N 3.77; G 3.09; V 4.25; P 1.25; F 4.47; W 4.4; E 3.67; I 4.3; D 3.53; A 3.97; S 4.13; L 4.38; C 3.83; H 4.28; R 4.41; T 4.24; Y 4.48; K 4.33; M 4.43
